Here are results for two molecules from patent publication US9320770B2, “Blood vessel maturation, normalization or stabilization agent and wrinkle preventer/improver” (Shiseido Company, Ltd., priority 2008, dated 2016).

What all share (type): cell-based
Assay [1] relates to Normal human umbilical vein endothelial cells and normal human dermal fibroblasts. Put plainly: Evaluation of angiogenesis inhibitory action (angiogenesis kit, lumen formation in the presence of VEGF-A). How it is done: Evaluation of Angiogenesis Inhibitory Action
A test was conducted for confirming the angiogenesis inhibitory action of cinnamon bark hot water extract.
Normal human umbilical vein endothelial cells and normal human dermal fibroblasts were co-cultured at a constant ratio using an angiogenesis kit (Kurabo Industries) and prepared in the growth state of the initial stage of lumen formation. The cells were incubated (under conditions of 37° C. and 5% CO2) after adding medium containing a prescribed concentration of cinnamon bark hot water extract in the presence of 10 ng/ml of vascular endothelial cell growth factor A (VEGF-A, Kurabo Industries). […] The stained images obtained from each well were then photographed (FIG. 4), and the images were analyzed using the length and surface area of lumen formation as indicators to evaluate angiogenesis inhibitory action (FIGS. 5 and 6). Image analysis for the length of lumen formation and image analysis for surface area were respectively carried out using angiogenesis quantification software (Kurabo Industries). […] Moreover, angiogenesis inhibitory action in the presence of VGF-A was also evaluated for Ang-1, which is known to have an action that is responsible for vascular stabilization.

The target in assay [2] is T1, full-length murine TIE2 (Mus musculus, UniProt Q02858).
T1 construct: Ba/F3 transduced with full-length murine TIE2(BaF/TIE2); expressed in transfected cells; host or cells: Ba/F3 (murine pro-B cell line)
T1 sequence (Q02858 23-1122): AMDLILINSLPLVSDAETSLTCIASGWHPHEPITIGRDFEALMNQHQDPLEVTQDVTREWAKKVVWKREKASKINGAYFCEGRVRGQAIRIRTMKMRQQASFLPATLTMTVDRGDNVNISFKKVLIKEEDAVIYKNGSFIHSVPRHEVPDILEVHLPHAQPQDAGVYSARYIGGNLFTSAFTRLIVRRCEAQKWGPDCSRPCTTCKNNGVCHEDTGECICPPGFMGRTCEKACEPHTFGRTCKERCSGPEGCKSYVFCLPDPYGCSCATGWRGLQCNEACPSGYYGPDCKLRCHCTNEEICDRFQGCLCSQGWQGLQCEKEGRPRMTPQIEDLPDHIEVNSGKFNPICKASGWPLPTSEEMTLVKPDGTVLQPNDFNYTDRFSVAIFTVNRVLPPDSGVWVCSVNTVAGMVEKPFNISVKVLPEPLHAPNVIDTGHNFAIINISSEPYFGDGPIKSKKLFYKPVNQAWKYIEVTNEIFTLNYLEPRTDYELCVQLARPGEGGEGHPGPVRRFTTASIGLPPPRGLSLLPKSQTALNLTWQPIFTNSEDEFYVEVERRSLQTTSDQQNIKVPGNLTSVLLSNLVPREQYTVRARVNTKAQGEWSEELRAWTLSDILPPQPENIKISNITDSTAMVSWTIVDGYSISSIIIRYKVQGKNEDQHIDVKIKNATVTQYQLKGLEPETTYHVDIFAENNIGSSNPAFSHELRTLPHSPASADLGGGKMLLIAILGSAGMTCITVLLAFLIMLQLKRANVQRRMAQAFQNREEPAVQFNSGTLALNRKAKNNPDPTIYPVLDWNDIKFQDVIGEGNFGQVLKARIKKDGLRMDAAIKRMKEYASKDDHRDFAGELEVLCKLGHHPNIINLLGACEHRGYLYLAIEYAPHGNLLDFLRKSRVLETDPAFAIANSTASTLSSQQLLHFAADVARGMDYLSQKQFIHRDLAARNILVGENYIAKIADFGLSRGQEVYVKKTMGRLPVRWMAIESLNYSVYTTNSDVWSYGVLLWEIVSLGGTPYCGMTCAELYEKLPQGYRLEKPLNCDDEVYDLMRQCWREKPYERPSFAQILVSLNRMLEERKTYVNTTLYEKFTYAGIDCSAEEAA
Put plainly: Tie-2 phosphorylation evaluation in Baf3 cells (BaF/TIE2), Western blotting. Conditions: extracts 100 ppm, Angiopoietin-1 0.5 ppm, 10 minutes, FIG. 1 and 2. As to the method: Tie-2 Phosphorylation Evaluation Method
(§1) Baf3 cells, a murine pro-B cell line, Ba/F3 transduced with full-length murine TIE2(BaF/TIE2) were incubated in RPMI 1640 medium in the presence of IL-3 (Biosource, PMC0034) and 10% FCS. The cells were plated into a 6-well plate at 2×10^6 cells/1.5 mL/well and incubated overnight while omitting the FCS starting on the day before cell stimulation. DMSO solutions of the aforementioned hot water extract dry residues, Angiopoietin-1 (R&D System, 932-AN) as a positive control or DMSO as a negative control were added to the wells at a final concentration of 100 ppm, 0.5 ppm and 1000 ppm, respectively, followed by incubating for 10 minutes, cooling the cells on ice and washing with chilled PBS. The cells were then ultrasonically homogenized in RIPA buffer containing protease inhibitors (leupeptin, aprotinin, pepstatin, PMSF, Na3VO4). Sample buffer (0.2 M Tris-HCl (pH 6.8), 4% SDS, 20% glycerol, 5 mM EDTA, 0.01% BPB) was then added followed by carrying out SDS-PAGE (7.5% polyacrylamide gel, 12 wells, NPU-7.5L, Atto Corp.) under the conditions indicated below.
Gel: 7.5% acrylamide gel (NPU-7.5L, Atto Corp.)
Phoresis conditions: 40 mA (75 minutes, 2 gel sheets) […]
(§2) Next, Western blotting (20 V, 4° C., overnight) was carried out for transcription to a PVDF membrane. […] Protein bands were detected by chemiluminescence detection (ECL).
Background: In western blotting, separated proteins are transferred to a membrane and probed.

The target in assay [3] is T2, Tie-2 (Homo sapiens, UniProt Q02763).
T2 construct: Tie-2 phosphorylation was similarly evaluated using normal human umbilical vein endothelial cells (HUVEC); endogenous in cells; host or cells: HUVEC (normal human umbilical vein endothelial cells)
T2 sequence (Q02763 23-1124): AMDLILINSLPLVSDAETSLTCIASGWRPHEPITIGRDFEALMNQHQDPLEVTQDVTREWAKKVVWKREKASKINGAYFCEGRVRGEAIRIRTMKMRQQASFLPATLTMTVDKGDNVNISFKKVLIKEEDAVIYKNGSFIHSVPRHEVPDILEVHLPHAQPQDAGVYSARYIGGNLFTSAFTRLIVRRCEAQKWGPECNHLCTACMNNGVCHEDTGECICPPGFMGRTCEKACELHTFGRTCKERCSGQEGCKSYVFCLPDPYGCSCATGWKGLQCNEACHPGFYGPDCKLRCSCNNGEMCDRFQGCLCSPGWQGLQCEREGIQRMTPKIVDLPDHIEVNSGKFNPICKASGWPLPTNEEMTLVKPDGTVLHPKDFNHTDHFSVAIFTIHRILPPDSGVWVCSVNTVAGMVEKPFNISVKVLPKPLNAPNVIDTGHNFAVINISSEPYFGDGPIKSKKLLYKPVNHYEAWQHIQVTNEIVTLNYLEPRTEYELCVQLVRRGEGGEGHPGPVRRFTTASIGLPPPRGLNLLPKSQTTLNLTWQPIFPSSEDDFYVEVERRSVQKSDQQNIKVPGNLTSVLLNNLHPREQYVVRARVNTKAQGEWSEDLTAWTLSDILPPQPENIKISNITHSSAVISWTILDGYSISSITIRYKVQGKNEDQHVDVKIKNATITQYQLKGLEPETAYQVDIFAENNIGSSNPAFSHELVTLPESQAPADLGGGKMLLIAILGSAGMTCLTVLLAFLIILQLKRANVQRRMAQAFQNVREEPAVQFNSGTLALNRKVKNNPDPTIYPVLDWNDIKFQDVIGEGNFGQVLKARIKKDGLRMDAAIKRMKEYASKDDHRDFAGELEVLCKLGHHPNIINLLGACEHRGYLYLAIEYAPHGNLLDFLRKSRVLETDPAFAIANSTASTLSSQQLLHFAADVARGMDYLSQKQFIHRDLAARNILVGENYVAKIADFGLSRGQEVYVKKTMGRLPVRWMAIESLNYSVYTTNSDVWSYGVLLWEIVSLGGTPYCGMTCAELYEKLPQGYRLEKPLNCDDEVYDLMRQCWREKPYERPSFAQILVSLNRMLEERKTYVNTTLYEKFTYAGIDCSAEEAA
The assay is described as follows: Tie-2 phosphorylation evaluation in HUVEC. Conditions: evaluated in the same manner as Baf3 cells, FIG. 3. How it is done: as §1, §2
2) Tie-2 phosphorylation was similarly evaluated using normal human umbilical vein endothelial cells (HUVEC). […]

In the case of `Cc1ccc(C(=O)Nc2ccc(S(=O)(=O)O)c3cc(S(=O)(=O)O)cc(S(=O)(=O)O)c23)cc1NC(=O)c1cccc(NC(=O)Nc2cccc(C(=O)Nc3cc(C(=O)Nc4ccc(S(=O)(=O)O)c5cc(S(=O)(=O)O)cc(S(=O)(=O)O)c45)ccc3C)c2)c1` [Suramin, reference compound], the “lumen formation (stained image)” value in assay [1] (cultured with VEGF-A 10 ng/ml, FIG. 4, cinnamon bark extract particularly at 300 ppm) is on record as “lumen formation was determined to be inhibited”.

B1: Ang-1: Angiopoietin-1 (R&D System, 932-AN), positive control known to activate Tie-2 (protein, UniProt Q15389 16-498, looked up)
Angiopoietin-1: HIGCSNQRRSPENSGRRYNRIQHGQCAYTFILPEHDGNCRESTTDQYNTNALQRDAPHVEPDFSSQKLQHLEHVMENYTQWLQKLENYIVENMKSEMAQIQQNAVQNHTATMLEIGTSLLSQTAEQTRKLTDVETQVLNQTSRLEIQLLENSLSTYKLEKQLLQQTNEILKIHEKNSLLEHKILEMEGKHKEELDTLKEEKENLQGLVTRQTYIIQELEKQLNRATTNNSVLQKQQLELMDTVHNLVNLCTKEGVLLKGGKREEEKPFRDCADVYQAGFNKSGIYTIYINNMPEPKKVFCNMDVNGGGWTVIQHREDGSLDFQRGWKEYKMGFGNPSGEYWLGNEFIFAITSQRQYMLRIELMDWEGNRAYSQYDRFHIGNEKQNYRLYLKGHTGTAGKQSSLILHGADFSTKDADNDNCMCKCALMLTGGWWFDACGPSNLNGMFYTAGQNHGKLNGIKWHYFKGPSYSLRSTTMMIRPLDF
In the case of B1, the “angiogenesis inhibitory action (length and surface area of lumen formation)” value in assay [1] (angiogenesis induced by VEGF-A 10 ng/ml, FIGS. 5 and 6, cinnamon bark extract 10 to 300 ppm) was “did not have angiogenesis inhibitory action”. The Tie-2 phosphorylation entry in assay [2] and in assay [3] was “phosphorylation of Tie-2” in each case.
